In publication PMC5411485 one finds K half ([4Fe-4S] protein:DNA ratio) data, which are given here for 1 substance.

Series [1] deals with ScNsrR D8C, [4Fe-4S] (Streptomyces coelicolor). In words: EMSA. To be noted: EMSA: 10 mM Tris, 54 mM KCl, 0.3% glycerol, 1.32 mM glutathione, pH 7.2, on ice ~10 min; 5% PAGE in 1x TBE.
The test system of series [2] is ScNsrR D8A, [4Fe-4S] (Streptomyces coelicolor). The experiment in a line: EMSA. To be noted: EMSA: 10 mM Tris, 54 mM KCl, 0.3% glycerol, 1.32 mM glutathione, pH 7.2, on ice ~10 min; 5% PAGE in 1x TBE. On the technique in general: Mobility shift assays separate free from complexed probe on a gel.

For the substance hmpA1 promoter probe, the K half ([4Fe-4S] protein:DNA ratio) is 20 in series [1] and above 20 in series [2].
